Assay [1] addresses soluble tissue factor composed of the extracellular domain residues 1-219 of hTF (human) (UniProt P13726). Nature of the assay: TF binding assay (ELISA on coated human soluble TF), ratio to chimeric F(ab) standard. Background: In an ELISA, binding on a coated surface is turned into a signal by an enzyme label.
Assay [2] has as its target truncated transmembrane tissue factor comprising residues 1-243, relipidated (human) (UniProt P13726). Description: cell-based or functional assay.
Assay [3] addresses relipidated human tissue factor (Innovin) (human) (UniProt P13726). Nature of the assay: cell-based or functional assay.
Assay [4] deals with truncated transmembrane tissue factor comprising residues 1-243, relipidated (human) (UniProt P13726). Nature of the assay: cell-based or functional assay. This is another data set of the same source.
truncated transmembrane tissue factor comprising residues 1-243, relipidated (human), sequence (P13726 33-275): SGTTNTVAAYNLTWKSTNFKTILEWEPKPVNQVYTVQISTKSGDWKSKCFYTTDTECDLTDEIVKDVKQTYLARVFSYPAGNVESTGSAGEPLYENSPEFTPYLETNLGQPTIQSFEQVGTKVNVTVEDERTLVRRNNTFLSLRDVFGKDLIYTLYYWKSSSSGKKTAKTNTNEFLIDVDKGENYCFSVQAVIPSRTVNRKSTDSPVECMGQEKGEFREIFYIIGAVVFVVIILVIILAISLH
For assay [5], the target named is tissue factor on human J82 cells (human) (UniProt P13726). Nature of the assay: cell-based or functional assay.
tissue factor on human J82 cells (human), sequence (P13726 33-295): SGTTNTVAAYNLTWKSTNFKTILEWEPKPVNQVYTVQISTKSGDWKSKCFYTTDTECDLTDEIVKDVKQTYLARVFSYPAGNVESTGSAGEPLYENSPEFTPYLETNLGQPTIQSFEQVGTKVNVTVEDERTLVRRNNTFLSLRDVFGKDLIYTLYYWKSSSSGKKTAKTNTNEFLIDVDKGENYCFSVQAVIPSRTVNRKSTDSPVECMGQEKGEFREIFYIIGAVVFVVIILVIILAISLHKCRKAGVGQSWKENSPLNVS

Like-named read-outs stand apart in the source and are kept apart here.

soluble tissue factor composed of the extracellular domain residues 1-219 of hTF (human), sequence (P13726 33-251): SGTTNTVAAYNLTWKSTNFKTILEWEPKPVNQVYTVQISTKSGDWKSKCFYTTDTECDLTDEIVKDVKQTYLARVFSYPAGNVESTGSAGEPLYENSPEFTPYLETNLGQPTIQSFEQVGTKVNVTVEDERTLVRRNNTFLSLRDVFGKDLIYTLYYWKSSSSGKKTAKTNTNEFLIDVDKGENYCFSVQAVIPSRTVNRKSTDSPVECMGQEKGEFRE
relipidated human tissue factor (Innovin) (human), sequence (P13726 33-295 limits assumed): as the sequence (P13726 33-295) above

Take “chimeric D3 F(ab) with CDR-H3 Thr96-Ala97-Ala98 changed to TF8 Asn96-Ser97-Tyr98 (Fab)”: the fold reduction in binding against chimeric D3 F(ab) in assay [1] amounted to 20.3 fold.
Turning to “chimeric D3 F(ab) with CDR-H2 Asp H65 changed to Gly (Fab)”, the fold reduction in binding against chimeric D3 F(ab) in assay [1] came to 14.2 fold.
For the molecule HTF1 antibody, in assay [2], the concentration inhibiting the rate of FX activation in human plasma by 50% was 150 µg/mL.

B1: murine anti-TF antibody 5G6 (antibody, V domains shown)
VH: EVLLQQSGPELVKPGASVKIPCKASGYTFTEYNMDWVKQSHGKSLEWIGDINPNNGNTIYNQKFKGKATLTVDKSSTTAYLELRSLTSEDTAVYFCARDHDYYFDFWGQGTTLTVSS
VL: DIQMTQTPASQSASLGESVTITCLASQTIDTWLAWYQQKPGKSPQLLIYAATSLADGVPSRFSGSGSGTKFSFKISSLQAEDFVSYYCQQPYSSPYTFGGGTKLELKR
modifications: murine constant regions
B1 came in with an antibody concentration prolonging the clotting time (PT) by 1.5-fold in assay [3] of 27 µg/mL. The molecule also gave a concentration inhibiting the rate of FX activation in human plasma by 50% in assay [4] of 15.5 µg/mL. Besides, in assay [5], the IC50 of FPA generation, human ex-vivo blood flow system with J82 cells was found to be 50 µg/mL.

Values taken from patent US20030124117A1.
